Reference: patent US9271946B2, “Use of a RAR antagonist or inverse agonist for the treatment of chemotherapy and/or radiation therapy side effects” (IO Therapeutics, Inc., priority 2006, dated 2016)

Tests used:
[1] = test system: 5-FU-induced neutropenic male BDF1 mice; assay: monotherapy and combination therapy on neutrophil recovery in 5-FU-induced neutropenic mice (Example 5); format: in vivo, mouse; conditions: monotherapy; 5-FU 150 mg/kg i.v. Day 0; VTP 194310 3 mg/kg/day oral Days 2 to 4; PEG-G-CSF 10 μg/kg s.c. Day 5, 6, or 7
Description: VTP194310 DMSO Stock solution was made by weighing out VTP194310 and dissolving it in DMSO (25 mg/1.33 ml DMSO).
The Vehicle solution was made by mixing 39.2 ml Corn Oil+0.8 ml DMSO.
The 3.0 mg/kg VTP194310 solution was made by mixing 39.2 ml Corn Oil+0.8 ml VTP 194310 DMSO Stock solution.
The 150 mg/kg 5-FU solution was made by weighing out 187.5 mg 5-FU and mixing it with 10 g saline.
The 10 μg/kg PEG-G-CSF solution was made by diluting 6 mg/ml stock with PBS.
Male BDF1 mice (C57Bl×DBA2), 9 weeks old, DOB: 26 Jun. 2006) were used in this experiment.
Each group of mice were treated with 150 mg/kg 5-FU intravenously on Day 0, vehicle or VTP194310 orally by gavage at 3 mg/kg/day on Days 2 to 4, and/or subcutaneously with PEG-G-CSF at 10 μg/kg on Days 5, 6, or 7 according to the regimens listed in the table. The mean numbers of total white blood cells (WBC), neutrophils, lymphocytes, red blood cells (RBC) and platelets and standard error (SE) of data obtained for each treated group are shown in FIG. 6.

[2] = test system: CPM-induced leukopenic male BDF1 mice; assay: cyclophosphamide-induced mouse model of leukopenia, blood cell recovery (Example 1); format: in vivo; conditions: 10 μg/kg s.c. at day 2
Description: Mice purchased from Charles River Laboratories (Wilmington, Mass.) were housed individually in micro-isolater cages in a 12-hour light/dark cycle. They were housed under pathogen-free conditions, and received a normal standard diet and water ad libitum. They were acclimated for one week at the Association for Assessment and Accreditation of Laboratory Animal Care (AAALAC) accredited animal facility (Allergan Inc., Irvine, Calif.) prior to experiments. Study designs were approved by the Institutional Animal Care and Use Committee. Body weights were monitored throughout each study. Weight of the mice was in the range of 22-27 g at the day of treatment initiation. The mice were healthy, not previously used in other experimental procedures.
Leukopenia was induced in male BDF1 mice (C57Bl×DBA2, 7.5-12 weeks) by an intra-peritoneal (i.p.) injection of 200 mg/kg Cyclophosphamide (CPM, Sigma-Aldrich, Saint Louis, Mo.) in 0.2 ml saline. The effect of VTP 194310 on leukocyte recovery was evaluated by oral gavage of animals with 1 mg/kg of VTP 194310 as indicated in the results section. VTP 194310 (dissolved in DMSO) was diluted through peanut oil as the vehicle (dosed at 5 ml/kg). Control mice were given DMSO and vehicle alone. As a positive control, granulocytopoiesis was stimulated in CPM-treated mice by a single sub-cutaneous injection of 10 μg/kg pegylated recombinant methionyl human granulocyte colony-stimulating factor (PEG-r-metHuG-CSF) (Neulasta, Pegfilgrastim; Amgen, Thousand Oaks, Calif.) on day 2. Three separate experiments were performed.
Peripheral blood (60 μl) was collected under anaesthesia from the retroorbital sinus of the mice with heparinized capillary tubes and transferred to EDTA-coated microtainer tubes (Becton Dickinson, Franklin Lakes, N.J.). White cell, neutrophil, and lymphocyte counts were obtained for at least three mice per group by diluting the blood 1:4 with PBS containing 5% bovine serum albumin (Fraction V; Sigma, Saint Louis, Mo.), and by using an Advia 120 Hematology System (Bayer HealthCare Diagnostics Division, Tarrytown, N.Y.).

[3] = test system: CPM-induced neutropenic male BDF1 mice; assay: mono-therapy and combination therapy on neutrophil recovery in CPM-induced neutropenic mice (Example 4); format: in vivo, mouse; conditions: monotherapy; CPM 150 mg/kg Day 0; VTP 194310 1 or 3 mg/kg/day oral Days −1 to 1; PEG-G-CSF 1 or 10 μg/kg s.c. Day 2
Description: VTP 194310 DMSO stock solution was made by weighing out VTP 194310 and dissolved in DMSO (25 mg/1.33 ml DMSO). This stock solution was then mixed with Vehicle (39.2 ml Corn Oil+0.8 ml DMSO).
The 3.0 mg/kg VTP194310 solution was made by mixing 39.2 ml Corn Oil+0.8 ml VTP 194310 DMSO Stock.
The 1.0 mg/kg VTP194310 solution was made by diluting the VTP194310 DMSO Stock 1:3 with DMSO (e.g. 1 ml DMSO+0.5 ml 4310 Stock), and then combining 39.2 ml Corn Oil+0.8 ml of the diluted VTP194310 Stock.
The 1 and 10 μg/kg PEG-G-CSF solutions were made by diluting 6 mg/ml stock with PBS.
Male BDF1 mice (C57Bl×DBA2), 7-8 weeks old, DOB: 1 Jun. 2006) were used in this experiment.
35 μl of blood (via the submandibular vein) were collected according to the scheduled time points or until the full recovery of blood cells and platelets. The blood samples were analyzed after 1:5 dilution with PBS saline containing 2% BSA (Fraction V) and 0.2 mM EDTA on the Hematology Analyzer Cell-DYN 3700 (Abbott Diagnostics).
Each group of mice were treated with vehicle, VTP 194310 at 3 mg/kg, PEG-G-CSF at 1 or 10 μg/kg, and CPM at 150 mg/kg. The mean numbers of total white blood cells (WBC), neutrophils, lymphocytes, red blood cells (RBC) and platelets and standard error (SE) for data obtained for each treated group are shown in FIG. 4. […] Combination treatment with VTP 194310 and PEG-G-CSF further increased recovery.

B1: PEG-G-CSF: pegylated recombinant methionyl human granulocyte colony-stimulating factor (Neulasta, Pegfilgrastim; Amgen) (protein, chains of the INN, looked up)
chain: TPLGPASSLPQSFLLKCLEQVRKIQGDGAALQEKLCATYKLCHPEELVLLGHSLGIPWAPLSSCPSQALQLAGCLSQLHSGLFLYQGLLQALEGISPELGPTLDTLQLDVADFATTIWQQMEELGMAPALQPTQGAMPAFASAFQRRAGGVLVASHLQSFLEVSYRVLRHLAQP
modifications: N-terminal Met; PEG
How did the “recovery of neutrophils relative to control” value [1] turn out when B1 was run?
The value was “little effect”.

What about the “blood neutrophil level at day 8” value [2] of the same molecule?
Its value is “declined by day 8 to numbers that were observed in the control group”.

And the “day of peak blood neutrophil level” value [2]?
The value was 7 days.

And the “number of blood neutrophils” value [2]?
Its value is “sharp rise”.

And the “neutrophil recovery relative to control” value [3]?
The value was “enhanced neutrophil recovery”.
